Key:
[1] = target: thrombin-specific peptide with the cleavage site
[2] = target: thrombin-specific peptide with the cleavage site; experiment: single-particle plasmon sensing (dark-field scattering microscopy of gold nanorods); peptide held on gold nanorods on a coverslip in a flow cell; thrombin 1-300 nM injected at 5 uL/min in 50 mM Tris-HCl, 10 mM CaCl2, 150 mM NaCl, pH 8.4; rate constants of a three-stage kinetic model adjusted to match the plasmon-shift time traces
[3] = target: thrombin-specific peptide with the cleavage site; experiment: single-particle plasmon sensing (dark-field scattering microscopy of gold nanorods); same sensor; standard deviation of the start time t0 of cleavage among particles against thrombin concentration, fitted with Poisson statistics of the waiting time for the first enzyme to bind to a particle; additional uncertainty of 20 s allowed

Sequence of thrombin-specific peptide with the cleavage site (peptide, as listed by the source): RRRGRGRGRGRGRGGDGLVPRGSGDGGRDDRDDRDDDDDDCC

Substance: active thrombin (enzyme)
- peptide cleavage rate kb from the kinetic model matched to the plasmon-shift time traces [1]: 0.01 s^–1
- kon [2]: 200000 M⁻¹ s⁻¹
- kon [3]: 100000 M⁻¹ s⁻¹

Source: publication PMC10616847
